Measurements: patent publication US20250352667A1
Changes are numbered by the printed parent chain. Names may count otherwise.

Key:
[1] = biological target: KEAP1 (wild-type full-length), His-tagged (human) (UniProt Q14145); assay: AlphaScreen; 9.6 nM FLAG-NRF2, 150 nM His-KEAP1; Repeat 1 (same value as in Table 26)
[2] = biological target: KEAP1 (wild-type full-length), His-tagged (human) (UniProt Q14145); assay: AlphaScreen; FLAG-NRF2 wt isoform 1 9.6 nM, His-KEAP1 150 nM; Rep 3; positive control for I86V
[3] = biological target: KEAP1 (wild-type full-length), His-tagged (human) (UniProt Q14145); assay: AlphaScreen; 19.2 nM FLAG-NRF2, 150 nM His-KEAP1; wild type set to 100%
[4] = biological target: KEAP1 (wild-type full-length), His-tagged (human) (UniProt Q14145); assay: AlphaScreen; 614.4 nM FLAG-NRF2, 150 nM His-KEAP1; Rep 2; control for I28V
[5] = biological target: KEAP1 (wild-type full-length), His-tagged (human) (UniProt Q14145); assay: AlphaScreen; FLAG-NRF2 wt isoform 1 9.6 nM, His-KEAP1 150 nM; Repeat 1; positive control for Q75R
[6] = biological target: KEAP1 (wild-type full-length), His-tagged (human) (UniProt Q14145); assay: AlphaScreen; 76.8 nM FLAG-NRF2, 150 nM His-KEAP1; Rep 2; control for I86V
[7] = biological target: KEAP1 (wild-type full-length), His-tagged (human) (UniProt Q14145); assay: AlphaScreen; 4.8 nM FLAG-NRF2, 150 nM His-KEAP1; signal against NRF2 only; control for I86V
[8] = biological target: KEAP1 (wild-type full-length), His-tagged (human) (UniProt Q14145); assay: AlphaScreen; NRF2 wt isoform 1 9.6 nM, KEAP1 150 nM; signal against NRF2-only control; control for I86V
[9] = biological target: KEAP1 (wild-type full-length), His-tagged (human) (UniProt Q14145); assay: AlphaScreen; 153.6 nM FLAG-NRF2, 150 nM His-KEAP1; Rep 1; control for I86V
[10] = biological target: KEAP1 (wild-type full-length), His-tagged (human) (UniProt Q14145); assay: AlphaScreen; mean over 9.6, 19.2 and 38.4 nM NRF2; 150 nM His-KEAP1
[11] = biological target: KEAP1 (wild-type full-length), His-tagged (human) (UniProt Q14145); assay: AlphaScreen; NRF2 wt isoform 1 2.4 nM, KEAP1 150 nM; signal against NRF2-only control; control for Q75R
[12] = biological target: KEAP1 (wild-type full-length), His-tagged (human) (UniProt Q14145); assay: AlphaScreen; 38.4 nM FLAG-NRF2, 150 nM His-KEAP1; wild type set to 100%
[13] = biological target: KEAP1 (wild-type full-length), His-tagged (human) (UniProt Q14145); assay: AlphaScreen; FLAG-NRF2 wt isoform 1 19.2 nM, His-KEAP1 150 nM; Repeat 2; positive control for Q75R
[14] = biological target: KEAP1 (wild-type full-length), His-tagged (human) (UniProt Q14145); assay: AlphaScreen; 4.8 nM FLAG-NRF2, 150 nM His-KEAP1; signal against NRF2 only
[15] = biological target: KEAP1 (wild-type full-length), His-tagged (human) (UniProt Q14145); assay: AlphaScreen; 19.2 nM FLAG-NRF2, 150 nM His-KEAP1; against wild-type NRF2 isoform 1 = 100%
[16] = biological target: KEAP1 (wild-type full-length), His-tagged (human) (UniProt Q14145); assay: AlphaScreen; 38.4 nM FLAG-NRF2, 150 nM His-KEAP1; Repeat 2 (same value as in Table 27)
[17] = biological target: KEAP1 (wild-type full-length), His-tagged (human) (UniProt Q14145); assay: AlphaScreen; 19.2 nM FLAG-NRF2, 150 nM His-KEAP1; Repeat 1 (same value as in Table 27)
[18] = biological target: KEAP1 (wild-type full-length), His-tagged (human) (UniProt Q14145); assay: AlphaScreen; 614.4 nM FLAG-NRF2, 150 nM His-KEAP1; signal against NRF2 only
[19] = biological target: KEAP1 (wild-type full-length), His-tagged (human) (UniProt Q14145); assay: AlphaScreen; 2.4 nM FLAG-NRF2, 150 nM His-KEAP1; Rep 1
[20] = biological target: KEAP1 (wild-type full-length), His-tagged (human) (UniProt Q14145); assay: AlphaScreen; 9.6 nM FLAG-NRF2, 150 nM His-KEAP1; Rep 2
[21] = biological target: KEAP1 (wild-type full-length), His-tagged (human) (UniProt Q14145); assay: AlphaScreen; FLAG-NRF2 I86V 2.4 nM, His-KEAP1 150 nM; Rep 2
[22] = biological target: KEAP1 (wild-type full-length), His-tagged (human) (UniProt Q14145); assay: AlphaScreen; FLAG-NRF2 I86V 9.6 nM, His-KEAP1 150 nM; Rep 2
[23] = biological target: KEAP1 (wild-type full-length), His-tagged (human) (UniProt Q14145); assay: AlphaScreen; mean over 9.6, 19.2 and 38.4 nM NRF2 Q75R, KEAP1 150 nM; relative to wild-type NRF2 isoform 1
[24] = biological target: KEAP1 (wild-type full-length), His-tagged (human) (UniProt Q14145); assay: AlphaScreen; NRF2 Q75R 307.2 nM, KEAP1 150 nM; signal against NRF2-only control
[25] = biological target: KEAP1 (wild-type full-length), His-tagged (human) (UniProt Q14145); assay: AlphaScreen; FLAG-NRF2 Q75R 38.4 nM, His-KEAP1 150 nM; Rep 2
[26] = biological target: KEAP1 (wild-type full-length), His-tagged (human) (UniProt Q14145); assay: AlphaScreen; FLAG-NRF2 Q75R 614.4 nM, His-KEAP1 150 nM; Rep 2
[27] = biological target: KEAP1 (wild-type full-length), His-tagged (human) (UniProt Q14145); assay: AlphaScreen; FLAG-NRF2 Q75R 1228.8 nM, His-KEAP1 150 nM; Rep 2

Sequence of KEAP1 (wild-type full-length), His-tagged (human) (Q14145 2-624 limits assumed): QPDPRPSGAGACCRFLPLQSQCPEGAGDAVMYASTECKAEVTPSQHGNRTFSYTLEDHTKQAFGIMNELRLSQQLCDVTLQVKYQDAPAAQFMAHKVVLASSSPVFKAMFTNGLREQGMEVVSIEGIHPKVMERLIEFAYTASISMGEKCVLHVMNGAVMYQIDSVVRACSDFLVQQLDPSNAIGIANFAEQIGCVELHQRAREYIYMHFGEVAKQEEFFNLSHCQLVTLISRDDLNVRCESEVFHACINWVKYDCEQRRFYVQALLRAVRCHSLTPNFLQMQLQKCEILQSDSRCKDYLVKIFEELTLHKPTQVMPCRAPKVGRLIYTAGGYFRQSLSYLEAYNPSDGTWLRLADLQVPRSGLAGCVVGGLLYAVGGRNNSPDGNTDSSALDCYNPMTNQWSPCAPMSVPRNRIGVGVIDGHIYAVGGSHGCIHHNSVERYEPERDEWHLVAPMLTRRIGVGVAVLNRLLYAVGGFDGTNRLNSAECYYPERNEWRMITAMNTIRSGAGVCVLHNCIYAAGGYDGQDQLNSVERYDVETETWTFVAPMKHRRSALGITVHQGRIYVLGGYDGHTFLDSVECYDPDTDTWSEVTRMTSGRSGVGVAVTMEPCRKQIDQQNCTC

B1: NRF2 isoform 1 (wild-type full-length), FLAG-tagged (protein)
chain: MMDLELPPPGLPSQQDMDLIDILWRQDIDLGVSREVFDFSQRRKEYELEKQKKLEKERQEQLQKEQEKAFFAQLQLDEETGEFLPIQPAQHIQSETSGSANYSQVAHIPKSDALYFDDCMQLLAQTFPFVDDNEVSSATFQSLVPDIPGHIESPVFIATNQAQSPETSVAQVAPVDLDGMQQDIEQVWEELLSIPELQCLNIENDKLVETTMVPSPEAKLTEVDNYHFYSSIPSMEKEVGNCSPHFLNAFEDSFSSILSTEDPNQLTVNSLNSDATVNTDFGDEFYSAFIAEPSISNSMPSPATLSHSLSELLNGPIDVSDLSLCKAFNQNHPESTAEFNDSDSGISLNTSPSVASPEHSVESSSYGDTLLGLSDSEVEELDSAPGSVKQNGPKTPVHSSGDMVQPLSPSQGQSTHVHDAQCENTPEKELPVSPGHRKTPFTKDKHSSRLEAHLTRDELRAKALHIPFPVEKIINLPVVDFNEMMSKEQFNEAQLALIRDIRRRGKNKVAAQNCRKRKLENIVELEQDLDHLKDEKEKLLKEKGENDKSLHLLKKQLSTLYLEVFSMLRDEDGKPYSPSEYSLQQTRDGNVFLVPKSKKPDVKKN
[1]
  A-counts: 1590 A-counts
[2]
  A-counts (NRF2 plus KEAP1): 2410 A-counts
[3]
  Binding Percentage (%): 100%
[4]
  A-counts: 1810 A-counts
[5]
  A-counts (NRF2 plus KEAP1): 1024 A-counts
[6]
  A-counts: 2780 A-counts
[7]
  S/N: 2.8
[8]
  S/N: 3.6
[9]
  A-counts: 3060 A-counts
[10]
  Average Binding: 100%
[11]
  S/N: 1.4
[12]
  Binding Percentage (%): 100%
[13]
  A-counts (NRF2 plus KEAP1): 1480 A-counts

B2: NRF2 isoform 1 (I28V full-length), FLAG-tagged (protein)
chain: B1 chain with I28V
[14]
  S/N: 2.9
[15]
  Binding Percentage (%): 68.3%
[16]
  A-counts: 1680 A-counts
[17]
  A-counts: 1730 A-counts
[18]
  S/N: 1
[19]
  A-counts: 697 A-counts
[20]
  A-counts: 1560 A-counts

B3: NRF2 isoform 1 (I86V full-length), FLAG-tagged (protein)
chain: B1 chain with I86V
[21]
  A-counts (NRF2 plus KEAP1): 1610 A-counts
[22]
  A-counts (NRF2 plus KEAP1): 2610 A-counts

B4: NRF2 isoform 1 (Q75R full-length), FLAG-tagged (protein)
chain: B1 chain with Q75R
[23]
  Average Binding: 69.8%
  Avg. Reduction in Binding: 30.2%
[24]
  S/N: 1
[25]
  A-counts (NRF2 plus KEAP1): 1280 A-counts
[26]
  A-counts (NRF2 plus KEAP1): 855 A-counts
[27]
  A-counts (NRF2 plus KEAP1): 653 A-counts
